Literature values in article PMC12203939.

Columns and labels:
[1] = target: PKA regulatory subunit RII (Homo sapiens) (UniProt P13861)
[2] = target: PKA regulatory subunit RI (Homo sapiens) (UniProt P10644)
Sequence of PKA regulatory subunit RI (Homo sapiens) (P10644 whole entry): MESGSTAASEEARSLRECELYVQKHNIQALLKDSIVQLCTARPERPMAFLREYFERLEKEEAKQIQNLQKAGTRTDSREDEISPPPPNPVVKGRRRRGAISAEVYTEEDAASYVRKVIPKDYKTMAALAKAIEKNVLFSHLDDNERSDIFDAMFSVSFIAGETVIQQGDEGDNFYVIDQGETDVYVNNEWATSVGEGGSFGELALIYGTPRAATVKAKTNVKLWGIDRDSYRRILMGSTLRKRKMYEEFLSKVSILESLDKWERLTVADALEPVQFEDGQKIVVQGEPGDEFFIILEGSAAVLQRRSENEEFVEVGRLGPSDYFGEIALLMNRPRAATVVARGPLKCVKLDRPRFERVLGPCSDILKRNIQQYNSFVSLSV

Sequence of OPA1 (O60313 195-960): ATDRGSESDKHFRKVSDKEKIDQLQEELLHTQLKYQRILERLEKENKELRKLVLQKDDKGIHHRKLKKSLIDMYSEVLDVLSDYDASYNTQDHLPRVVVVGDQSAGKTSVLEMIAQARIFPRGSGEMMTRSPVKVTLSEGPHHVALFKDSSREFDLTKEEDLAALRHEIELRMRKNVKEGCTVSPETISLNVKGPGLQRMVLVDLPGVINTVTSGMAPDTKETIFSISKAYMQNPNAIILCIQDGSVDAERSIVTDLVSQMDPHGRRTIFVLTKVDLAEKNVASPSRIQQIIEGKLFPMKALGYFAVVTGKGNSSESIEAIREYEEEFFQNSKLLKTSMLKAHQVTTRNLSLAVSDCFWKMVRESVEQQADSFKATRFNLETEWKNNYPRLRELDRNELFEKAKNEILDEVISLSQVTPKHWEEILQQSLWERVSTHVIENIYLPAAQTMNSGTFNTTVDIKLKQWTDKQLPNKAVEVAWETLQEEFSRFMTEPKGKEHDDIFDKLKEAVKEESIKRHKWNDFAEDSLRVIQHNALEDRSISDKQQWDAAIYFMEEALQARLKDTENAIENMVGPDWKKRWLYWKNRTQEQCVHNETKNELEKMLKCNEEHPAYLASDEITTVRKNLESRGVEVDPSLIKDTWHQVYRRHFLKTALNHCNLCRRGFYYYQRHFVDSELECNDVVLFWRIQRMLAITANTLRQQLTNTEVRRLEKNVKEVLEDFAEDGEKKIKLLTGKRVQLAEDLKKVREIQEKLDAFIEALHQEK
Sequence of PKA regulatory subunit RII (Homo sapiens) (P13861 2-404): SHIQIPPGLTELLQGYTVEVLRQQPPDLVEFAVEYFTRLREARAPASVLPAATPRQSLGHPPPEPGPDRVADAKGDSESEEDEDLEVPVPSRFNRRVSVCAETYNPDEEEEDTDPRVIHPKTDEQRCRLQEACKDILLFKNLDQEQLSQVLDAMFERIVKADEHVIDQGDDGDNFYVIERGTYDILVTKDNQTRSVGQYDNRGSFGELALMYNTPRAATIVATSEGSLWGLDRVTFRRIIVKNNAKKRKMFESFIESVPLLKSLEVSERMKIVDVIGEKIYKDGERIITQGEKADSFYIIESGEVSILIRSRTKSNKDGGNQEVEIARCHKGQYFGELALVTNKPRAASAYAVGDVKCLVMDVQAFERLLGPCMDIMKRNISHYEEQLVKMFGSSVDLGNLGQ

Substance: OPA1 (from UniProt O60313)
- Kd [1]: 14 nM
- Kd [2]: 12.5 nM
